{"source": "the supplement of paper PMC12042874", "note": "± gives the uncertainty stated by the source.", "data": [{"experiment": "amyloid nucleation score (Sup35N fusion, yeast selection) (log enrichment); library NNK1; higher = more nucleation; inactive = no reads after selection", "summary_of_the_method": "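The nucleation score equals the log enrichment of output over input reads from DiMSum, centred on the mode score of non-aggregating sequences. It was computed only for sequences with 100 or more input reads. The reads came from Illumina sequencing of plasmid inserts from psi-negative yeast expressing Sup35N fused to peptides of 20 random codons, induced with 100 μM copper sulfate for 24 hours and grown 7 days at 30°C without adenine and uracil.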", "values": [{"substance": "YVCDKFYGNAQCF", "amyloid nucleation score": "0.644 ± 0.4"}, {"substance": "FWGCTQMSRLDATDVSL", "amyloid nucleation score": "0.867 ± 1"}, {"substance": "DWGRLVYRFNCKDRNRDGAR", "amyloid nucleation score": "0.177 ± 0.41"}, {"substance": "TTSWDYFGAKEIIRFVMVTC", "amyloid nucleation score": "-2.12 ± 2.7"}, {"substance": "SGVINTAAMIRTDPWRVLDG", "amyloid nucleation score": "0.765 ± 0.42"}, {"substance": "YGHLTAGGCWSGQTNNARLG", "amyloid nucleation score": "-0.488 ± 0.9"}, {"substance": "GFVPLWLW", "amyloid nucleation score": "0.977 ± 0.8"}, {"substance": "NARWV", "amyloid nucleation score": "0.613 ± 0.38"}, {"substance": "FLRNNKIPVVFFSPS", "amyloid nucleation score": "inactive"}, {"substance": "CLNSDALDHW", "amyloid nucleation score": "1.17 ± 0.42"}, {"substance": "DRFNCKCFVLSKVLCWYGVG", "amyloid nucleation score": "0.851 ± 0.79"}, {"substance": "WHGVFKTRNRLCGTLPWFCA", "amyloid nucleation score": "-0.143 ± 0.51"}, {"substance": "FVLGDCCDIFSSYNQIMYIS", "amyloid nucleation score": "3.26 ± 0.12"}, {"substance": "HTTSICVRELPDQEVWTAVN", "amyloid nucleation score": "0.109 ± 0.54"}, {"substance": "YGLPLWCNMCSRSANRC", "amyloid nucleation score": "0.365 ± 0.48"}, {"substance": "FGYYFVNGIFLYSSVRYDNM", "amyloid nucleation score": "3.63 ± 0.076"}, {"substance": "EPIVLTVCCFSPKDVSQDLN", "amyloid nucleation score": "0.749 ± 0.56"}, {"substance": "ACTYYIWVLSCAGPRAGGKE", "amyloid nucleation score": "7.257 ± 0.048"}, {"substance": "YNMNFVSLVLGARRVYALSM", "amyloid nucleation score": "3.62 ± 0.12"}, {"substance": "LHRNSTPFIWHRRIEVSLGN", "amyloid nucleation score": "-0.201 ± 1.3"}, {"substance": "RKSVFNTLLFVE", "amyloid nucleation score": "0.569 ± 0.33"}, {"substance": "LTCRYLACCSLRSGRQMLVG", "amyloid nucleation score": "-0.694 ± 1.2"}, {"substance": "FVAGDSLTHARKYAVQRL", "amyloid nucleation score": "-1.08 ± 0.59"}, {"substance": "VKTYRPVSRGAKNKVRLAQG", "amyloid nucleation score": "0.642 ± 0.49"}, {"substance": "FNKYYMFEST", "amyloid nucleation score": "-0.038 ± 0.33"}, {"substance": "FDKGVSIRPSAWRDPRVWPS", "amyloid nucleation score": "0.417 ± 0.47"}, {"substance": "SVNVRVTDYKYRGLFACAFG", "amyloid nucleation score": "0.529 ± 0.58"}, {"substance": "LCDYKRPCMTMYNHHELLII", "amyloid nucleation score": "0.005 ± 0.47"}, {"substance": "DSLLEIGRSGVNELVGGLAD", "amyloid nucleation score": "-0.422 ± 1.2"}, {"substance": "NAFNHFYPTQPFLVQDCWRR", "amyloid nucleation score": "0.605 ± 0.72"}, {"substance": "RNIATYYFRSN", "amyloid nucleation score": "0.612 ± 0.48"}, {"substance": "PVQDGSLGCQSHYCSRYCYV", "amyloid nucleation score": "-0.129 ± 0.46"}, {"substance": "KKALTALM", "amyloid nucleation score": "0.822 ± 0.98"}, {"substance": "FGLVAGRR", "amyloid nucleation score": "-0.188 ± 1.2"}, {"substance": "QLQTSQRV", "amyloid nucleation score": "inactive"}, {"substance": "MFISIGLPPQRRQDSHGWGG", "amyloid nucleation score": "0.532 ± 0.37"}, {"substance": "SILISMYGGSSKKCQRFEEG", "amyloid nucleation score": "0.977 ± 0.47"}, {"substance": "LNLAKPLFSHRLRRFKCSYF", "amyloid nucleation score": "2.08 ± 0.23"}, {"substance": "TSRFPKASKSRLTRDCP", "amyloid nucleation score": "0.323 ± 0.35"}, {"substance": "IMCPMWWLVLYNSSVQRYAE", "amyloid nucleation score": "6.11 ± 0.07"}, {"substance": "MGGSCTSEQYCDWANYGDVL", "amyloid nucleation score": "0.125 ± 1.4"}, {"substance": "TLEFLMPSYLFHLGRMVNLS", "amyloid nucleation score": "-0.927 ± 1.4"}, {"substance": "IFFKLVLVWTFLLTYQAYWV", "amyloid nucleation score": "0.174 ± 0.85"}, {"substance": "YTTVVQF", "amyloid nucleation score": "0.064 ± 0.23"}, {"substance": "TNSTISYFARFVVIWLGKIA", "amyloid nucleation score": "-0.488 ± 0.86"}, {"substance": "DIWDTAAAPGCRCRGNS", "amyloid nucleation score": "-0.363 ± 1.5"}, {"substance": "NYSYSFIPRSKVNGYEYGGA", "amyloid nucleation score": "-0.387 ± 0.32"}, {"substance": "YNDMVICSTTDGTLSYCRHF", "amyloid nucleation score": "0.329 ± 0.26"}, {"substance": "DHGHCISPNTSYFMVDWFLK", "amyloid nucleation score": "0.473 ± 0.39"}, {"substance": "LRTRSLTALFQLCYHTCNVG", "amyloid nucleation score": "0.431 ± 0.42"}, {"substance": "STSMDPLYYDYDRLYKIHDK", "amyloid nucleation score": "0.484 ± 0.61"}, {"substance": "GFDFMWGGGFRNSRNRFQLS", "amyloid nucleation score": "0.428 ± 0.6"}, {"substance": "CVSHNVILRK", "amyloid nucleation score": "2.4 ± 0.092"}, {"substance": "SLATEYCSPFNINRFHLVSI", "amyloid nucleation score": "1.78 ± 0.29"}, {"substance": "ETFNWLSCIVRRSQKYAEET", "amyloid nucleation score": "-0.242 ± 1.2"}, {"substance": "GCRGSFVEGWIAHMADGSFI", "amyloid nucleation score": "-0.577 ± 0.57"}, {"substance": "AMRGYCRAFQIWVWICGLSL", "amyloid nucleation score": "0.027 ± 0.86"}, {"substance": "NDVRYLLDMDLLASSADYFM", "amyloid nucleation score": "-0.732 ± 1.1"}, {"substance": "SQPMSS", "amyloid nucleation score": "0.591 ± 0.31"}, {"substance": "FGLIGTPCERMVSGLEV", "amyloid nucleation score": "-0.806 ± 0.88"}, {"substance": "LYSVISPLSEDTYDCLSVPY", "amyloid nucleation score": "0.297 ± 0.79"}, {"substance": "FWYSNIYSIFMLPVIVWEPN", "amyloid nucleation score": "6.515 ± 0.053"}, {"substance": "NCVTELYDLRGILVRNLCSG", "amyloid nucleation score": "-0.044 ± 0.21"}, {"substance": "LFRDACLGMR", "amyloid nucleation score": "-0.494 ± 0.48"}, {"substance": "SFCPSMSNYTCIFPSTNLTY", "amyloid nucleation score": "7.033 ± 0.053"}, {"substance": "KNLGTRGHSMY", "amyloid nucleation score": "-0.164 ± 0.31"}, {"substance": "CIDMFNLLNLKHASYWVVVY", "amyloid nucleation score": "-0.563 ± 0.52"}, {"substance": "WHRDVGFTLISVTPFCMMGG", "amyloid nucleation score": "1.54 ± 0.33"}, {"substance": "VVTQCLLAAAVHLYCNCHHM", "amyloid nucleation score": "6.972 ± 0.045"}, {"substance": "CEGKGWFANITYSDFLLIMR", "amyloid nucleation score": "-0.462 ± 0.97"}, {"substance": "SVLTSMSITCWWKFWVGMSM", "amyloid nucleation score": "-0.731 ± 1.4"}, {"substance": "WLVAHAPGH", "amyloid nucleation score": "0.471 ± 0.62"}, {"substance": "NSGGVWSHYFVVVMRYL", "amyloid nucleation score": "0.083 ± 0.46"}, {"substance": "FLRHLSSCCHLATLCVDWGA", "amyloid nucleation score": "-0.103 ± 1.4"}, {"substance": "YIMFDVLLTDKRPSSSVCSC", "amyloid nucleation score": "3.41 ± 0.069"}, {"substance": "CLAGGYSGNAEGMIIETRAK", "amyloid nucleation score": "-0.171 ± 1.7"}, {"substance": "TRCCGFKRGGFVSYWMGSRP", "amyloid nucleation score": "1.01 ± 0.51"}, {"substance": "CFFRTDGLDTPYGAYLVRSF", "amyloid nucleation score": "2.31 ± 0.2"}, {"substance": "HTQDYEEFIFCLM", "amyloid nucleation score": "inactive"}, {"substance": "LYCTLLKDSVSSLAVTYMSY", "amyloid nucleation score": "-0.071 ± 0.28"}, {"substance": "SFVIYSKKCKNGSVNTVACS", "amyloid nucleation score": "0.142 ± 0.62"}, {"substance": "HSHRYNILQASWKA", "amyloid nucleation score": "0.17 ± 0.38"}, {"substance": "AFLTQTSHSQTT", "amyloid nucleation score": "0.048 ± 0.74"}, {"substance": "ISQKNDAMNYYIGMSQM", "amyloid nucleation score": "1.52 ± 0.34"}, {"substance": "VTCRCYSFSLMAGAMTRRSG", "amyloid nucleation score": "0.188 ± 0.75"}]}]}
